From the DeepSol protein solubility set

Test: soluble on expression in E. coli; label from the status in PepcDB or PDB records

| Sequence | soluble on expression in E. coli |
| --- | --- |
| MSLSAGDSMPGPKSTFRVGVWEDRNKKCRRTMEDTHAFLYNFVQTPALNDASAKDKPEGDDLVTSDMVESDNGYFAIFDGHAGTFAADWCGKKLHIILEDIIRKNPNALIPEVLDQAFTAADAQLEKLPLKNSGCTAAVAVLRWEDRASNDRSAIKPVKPEEPIEMDKANDGSSNEEATKATNSKGKGSGRQRVLYTANVGDARIILCRGGKALRLSYDHKGSDEVEGKRIAAAGGLILNNRVNGVLAVTRALGDAYMKKLVTGHPYTTETVIQPDSDEFIIIACDGIWDVCSDQEAVDLVRNVNDPISASKQLVDYALNRFSTDNLSCMVVRLDQNKEAAVEEGHHHHHH | soluble |
| MSLSANDVNKDHLQTSIKQCENNGNGQEEGLKNPSKSGTTFYVPWEGSENFLSCQSKNGTPIMMVAYQTVLRDPLPGEEENVHLAARLLAGTVVKPGEVFSQNNKIGPYVIARGFKKGPTYIGTKLTTTIGGGVCKMASTLYNVAILSNLPVVERHAHSMPVPYVPYGQDATVSYGNKDLKFKNDTSSPIMIWAQGVDNILYVAFYSSTKPPEVEWHHEMLKLIKADKVYKMSSTLPKGREKLLMEGMDGAIVKSWVTVKNPDGTVIKRDLRKSYYNPMPHVYEKGKEGHHHHHH | soluble |
| MSLSDAFLSSIKNRRTIYALDKQLPVSQEKIVELVKEAVSHSPSAFNSQSSRVVVLFGAEHEQFWNIAKDELKKIVPADAFAATETKLNSFAAGAGTVLFFEDQTVVRQLQEQFALYADNFPVWSEQASGMAQFAVWTALAEHKVGASLQHYNPLVDAQTHKTWNLPESWKLRAQMPFGAIAAPAGEKAFIAESERFKVFGNEGGSHHHHHH | soluble |
| MSLSDPKFIHLRIHSDFSMVDGLSKVPPLVKKVAAMGMPAMALTDFTNLCGLVKFYSTAHNCGVKPIIGADFTLQSEEFGDELTKLTLLAKNNVGYKNLTLLISKAYLRGHVQHQPVIDKAWLVEHAEGLIVLSGGKSGEVGRALLKGNQQQVERCIEFYQTHFADHFYLELIRTGRADEESYLHFALDVAEQYDLPVVATNEVVFITEGHHHHHH | not soluble |
| MSLSEASFLYLNDIHADPLYSPIIPSKHDCRGDHKKTIDPHKYGQYECDSPMELFESLVSNAKQTNEKPAFILLGGDLIAHGLNTDSKMLKQSFKNVTAPLEAAFPNTSIYITLGNNDFASDYGSFDTDADNFKTAYKVFGKWMNDEQSKTFLKGGYYYADFPEVNLRFLFLNSVMYAAKRDQTQHAEDPYDQFAWIESSYDDAVQKGFKVSVALHIPPGVYYYKNKLGWNEDYITKFSKIMKKCDFSFILSGHSHTDMFLPLYSPTADKDSVLYSLSAPSVSPVNYNNPGYRVFELSNGIVKDYTQYYADLLMNPSVLKWQVEYKFSDAYSASNVTRETINNAAEWVRTTGEGQWRYRERIYTRADEHNAFYYCALKALLPDDIVDCENKLNIDKLSAQPYYKEGHHHHHH | soluble |
| MSLSEKAKKPQKLKARLPRGFVDRSAADIHATNEMVDKIRRVYELYGFDPIETPLFEYTDALGKFLPDSDRPNEGVFSLQDDDDQWMSLRYDLTAPLARHVAENFNEIQLPYRTYRAGYVFRNEKPGPGRFRQFMQFDADTVGAAGVQADAEMCMMMADTMEALGIARGDYVIRVNNRKVLDGVMEAIGLGGEDNAGRRLNVLRAIDKLDKFGPEGVKLLLGPGRKDESGDFTKGAGLGDEQIEKVLFFVGIKDYAASADDLAKLVAGTSKGEEGVDELNTIGALVSGAGYDATRIKIDPSVVRGLEYYTGPVYEAELTFDVTNEKGEKVVFGSVGGGGRYDGLVSRFMGQPVPATGFSIGVSRLMTALKNLGKLGQVKPLAPVLITVMDGDVESMGRYQRFTQALRAEGIRAEMYQGNWKKFGNQLKYADRLGSPIAIIQGGDERAEGVVQIKDLIEGKRLSGEIEDNASWREARVAQVSEGHHHHHH | soluble |
| MSLSEKKVHLRLRKELSVPIAVVENESLAQLSYEEESQASLMDISMEQQQLRLHSHFDNSKVFTENNRYIVKTLQTDYSSGFSNDDELNGYIDMQIGYGLVNDHKKVYIWNIHSTQKDTPYITVPFRSDDNDEIAVAPRCILTFPATMDESPLALNPNDQDETGGLIIIKGSKAIYYEDINSINNLNFKLSEKFSHELELPINSSGGEKCDLMLNCEPAGIVLSTNMGRIFFITIRNSMGKPQLKLGKLLNKPFKLGIWSKIFNTNSSVVSLRNGPILGKGTRLVYITTNKGIFQTWQLSATNSHPTKLIDVNIYEAILESLQDLYPFAHGTLKIWDSHPLQDESSQLFLSSIYDSSCNETYYILSTIIFDSSSNSFTIFSTYRLNTFMESITDTKFKPKIFIPQMENANDTNEVTSILVMFPNAVVITQVNSKLDSSYSMRRKWEDIVSLRNDIDIIGSGYDSKSLYVLTKQMGVLQFFVKENEETNSKPEVGFVKSHVDQAVYFSKINANPIDFNLPPEISLDQESIEHDLKLTSEEIFHSNGKYIPPMLNTLGQHLSVRKEFFQNFLTFVAKNFNYKISPELKLDLIEKFEILNCCIKFNSIIRQSDVLNDIWEKTLSNYNLTQNEHLTTKTVVINSPDVFPVIFKQFLNHVVFVLFPSQNQNFKLNVTNLINLCFYDGILEEGEKTIRYELLELDPMEVDTSKLPWFINFDYLNCINQCFFDFTFACEEEGSLDSYKEGLLKIVKILYYQFNQFKIWINTQPVKSVNANDNFININNLYDDNHLDWNHVLCKVNLKEQCIQIAEFYKDLSGLVQTLQTLDQNDSTTVSLYETFFNEFPKEFSFTLFEYLIKHKKLNDLIFRFPQQHDVLIQFFQESAPKYGHVAWIQQILDGSYADAMNTLKNITVDDSKKGESLSECELHLNVAKLSSLLVEKDNLDINTLRKIQYNLDTIDAEKNISNKLKKGEVQICKRFKNGSIREVFNILVEELKSTTVVNLSDLVELYSMLDDEESLFIPLRLLSVDGNLLNFEVKKFLNALVWRRIVLLNASNEGDKLLQHIVKRVFDEELPKNNDFPLPSVDLLCDKSLLTPEYISETYGRFPIDQNAIREEIYEEISQVETLNSDNSLEIKLHSTIGSVAKEKNYTINYETNTVEYEGHHHHHH | soluble |
| MSLSELVRKLSGTAPNPAFPRGAVDTQMHMYLPGYPALPGGPGLPPGALPGPEDYRRLMQWLGIDRVIITQGNAHQRDNGNTLACVAEMGEAAHAVVIIDATTTEKDMEKLTAAGTVGARIMDLPGGAVNLSELDAVDERAHAADWMVAVQFDGNGLLDHLPRLQKIRSRWVFDHHGKFFKGIRTDGPEMAALLKLIDRGNLWFKFAGVYESSRKSWPYADVAAFSRVIAAHAPERIVWGTNWPHNSVRETAAYPDDARLAELTLGWLPDEAARHRALVENPEALFKLSPVKEGHHHHHH | soluble |
| MSLSENEQFSQMEAKARARMKERGVEVSDIAELVFFLQKKYHPDLTIDECTLNVNRVLAKREVQNAILTGIELDVLAEQKKLSEPLQTMLEIDESLYGVDEVLAFSIVNIYGSIGFTNYGYIDKEKPGILKRLNDKSTGECHTFLDDIVGAISAAASSRLAHRARHTEEGGSHHHHHH | soluble |
| MSLSEVDIAKADPAAASHPLLLNGDATVAQKNPGSVAENNLCSQYEEKVRPCIDLIDSLRALGVEQDLALPAIAVIGDQSSGKSSVLEALSGVALPRGSGIVTRCPLVLKLKKLVNEDKWRGKVSYQDYEIEISDASEVEKEINKAQNAIAGEGMGISHELITLEISSRDVPDLTLIDLPGITRVAVGNQPADIGYKIKTLIKKYIQRQETISLVVVPSNVDIATTEALSMAQEVDPEGDRTIGILTKPDLVDKGTEDKVVDVVRNLVFHLKKGYMIVKCRGQQEIQDQLSLSEALQREKIFFENHPYFRDLLEEGKATVPCLAEKLTSELITHICKSLPLLENQIKETHQRITEELQKYGEGHHHHHH | not soluble |
| MSLSFLKHVQDCNTHDLSNFVRFVIEGRRVGWVRKALAQRLKAHGRVFDVTRDAVLLSASLRTPQSRTRAVADVVDRLADEGVVPAPRGELYRVNQSWGEPTLMLLDRAVVPTFGVRAYGVHLNGYVGAGADLHLWIGRRSPDKSVAPGKLDNMVAGGQPADLSLRQNLIKECAEEADLPEALARQAIPVGAITYCMESPAGIKPDTLFLYDLALPEDFRPHNTDGEMADFMLWPAAKVVEAVRTTEAFKFNVNLTVIDFAIRHGLIDPDNEPDYQEILAGLRGRPRERAASEGHHHHHH | soluble |
| MSLSFSMKIKNIPYYVATRVVKRIQSWLGLNTLGARAIVTNAEGHVLLVKHTYQPHWYLPGGGVKKGESTKAAVIRELHEEVGLVVAEQDVILFGIYHHKYLGVNDYPVIYIVKNFTSHVTHSGEIEQIGWFSLDALPEMVSPGTKRRLGEYFDNNPISEKWEGHHHHHH | soluble |
